Reference: patent US20180318382 (published 2018)
Read-outs that look alike come from different tables or passages of the source. Where no end group is shown, it is not given here.

T1: NHERF-1 PDZ1 (human, UniProt O14745)
T1 chain: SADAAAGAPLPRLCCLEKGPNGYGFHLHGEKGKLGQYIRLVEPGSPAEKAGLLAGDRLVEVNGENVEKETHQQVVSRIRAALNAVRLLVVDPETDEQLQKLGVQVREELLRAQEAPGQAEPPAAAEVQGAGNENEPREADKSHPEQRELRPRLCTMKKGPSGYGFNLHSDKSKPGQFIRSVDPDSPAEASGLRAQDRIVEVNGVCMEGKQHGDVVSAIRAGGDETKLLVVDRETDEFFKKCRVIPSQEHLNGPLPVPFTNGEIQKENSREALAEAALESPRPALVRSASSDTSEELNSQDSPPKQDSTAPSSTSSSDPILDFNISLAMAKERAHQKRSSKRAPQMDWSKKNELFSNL

T2: TIP-1 (human, UniProt O14907)
T2 chain: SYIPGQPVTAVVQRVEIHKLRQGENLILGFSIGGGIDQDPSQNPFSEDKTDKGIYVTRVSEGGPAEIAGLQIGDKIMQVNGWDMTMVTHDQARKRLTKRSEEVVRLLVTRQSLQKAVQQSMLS

T3: NHERF-1 PDZ2 (human, UniProt O14745)
T3 chain: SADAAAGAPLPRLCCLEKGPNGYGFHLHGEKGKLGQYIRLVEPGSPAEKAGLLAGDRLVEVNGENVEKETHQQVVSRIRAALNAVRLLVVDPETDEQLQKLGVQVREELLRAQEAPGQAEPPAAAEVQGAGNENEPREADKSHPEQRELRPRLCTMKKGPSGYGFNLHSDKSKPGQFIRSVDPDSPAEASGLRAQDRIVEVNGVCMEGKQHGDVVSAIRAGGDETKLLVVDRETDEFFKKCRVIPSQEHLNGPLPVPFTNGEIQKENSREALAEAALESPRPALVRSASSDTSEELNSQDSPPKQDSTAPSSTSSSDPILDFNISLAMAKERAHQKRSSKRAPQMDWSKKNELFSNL


What was measured:
NHERF-1 PDZ1 = target: T1, NHERF-1 PDZ1; test: FP, competition
TIP-1 = target: T2, TIP-1; test: FP, competition
NHERF-1 PDZ2 = target: T3, NHERF-1 PDZ2; test: FP, competition
CAL PDZ [1] = target: T4, CAL PDZ (human, UniProt Q9HD26); test: FP, competition
CAL PDZ [2] = target: T4, CAL PDZ

| Binder | Ki (NHERF-1 PDZ1) [µM] | Ki (TIP-1) [µM] | Ki (NHERF-1 PDZ2) [µM] | Ki (CAL PDZ [1]) [µM] | Ki (CAL PDZ [2]) [µM] |
| --- | --- | --- | --- | --- | --- |
| ANSRLPTSII [iCAL42 ANSRLPTSII] | > 5000 | > 5000 | > 5000 | – | – |
| Ac-LPVTRV [Ac-LPVTRV] | – | > 5000 | – | 4.42 | – |
| ANSRWQVTRV | 2.8 | 0.057 | 208 | 1.17 | – |
| ANSRLPTSKI [ANSRLPTS[K-AEBA]I] | > 5000 | > 5000 | > 5000 | – | – |
| ANSRWQVTRV [ANSRWQVTRV (second entry)] | 2.8 | 0.057 | – | 1.13 | – |
| Ac-WQVTRV [kCAL01] | – | – | – | – | ~1 |
| ANSRLPTSK(Ac)I [ANSRLPTS[Ac-K]I] | > 5000 | > 5000 | > 5000 | – | – |
| Ac-WPVTRV [Ac-WPVTRV] | – | 0.258 | – | 1.22 | – |
